These results are taken from the supplement of paper PMC9428881.

This series in a line: background-corrected fluorescence of 3'-dye-labeled ssDNA relative to brightest sequence (3'-GCGCG) (fraction); higher = brighter dye fluorescence (less quenching). As to the method: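 Single-stranded DNA is synthesized in situ on glass microarrays by 5'->3' photolithographic synthesis, with a Cy3 or Cy5 phosphoramidite coupled at the 3' end next to all 1024 permuted pentamers P1-P5. The construct is 5'-T5-(ACGT minus P5..P1 trinucleotides)-T15-P5P4P3P2P1-dye-3'; the dye is a 3' terminal modification, not part of the sequence. Arrays were scanned at 532 nm (Cy3) or 635 nm (Cy5), background from unlabeled oligos was subtracted, and values are averaged over 10 replicate features per array and at least 3 independent syntheses.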

± gives the standard error.

For “TTTTTGCATGAGCATCATGATTTTTTTTTTTTTTTTCTGC [CGTCT]”, the background-corrected fluorescence came to 0.491 ± 0.029 (dye: Cy3 (3' terminal)) and 0.368 ± 0.024 (dye: Cy5 (3' terminal)).
For “TTTTTGCATGAGCATCATGCTTTTTTTTTTTTTTTTCTGA [AGTCT]”, in that order: 0.611 ± 0.018 and 0.56 ± 0.037.
Sequence “TTTTTGCATGAGCATGAGCATTTTTTTTTTTTTTTTCTCT” registered a background-corrected fluorescence (dye: Cy3 (3' terminal)) of 0.464 ± 0.014 and a background-corrected fluorescence (dye: Cy5 (3' terminal)) of 0.332 ± 0.024.
For “TTTTTGCATGAGCATGATCATTTTTTTTTTTTTTTTCTCG [GCTCT]”, in that order: 0.506 ± 0.02 and 0.376 ± 0.039.
For “TTTTTGCATGAGCATGATGATTTTTTTTTTTTTTTTCTCC [CCTCT]”, the background-corrected fluorescence is, setting by setting: (dye: Cy3 (3' terminal)) 0.335 ± 0.042; (dye: Cy5 (3' terminal)) 0.268 ± 0.019.
Taken in the same sequence, the figures for “TTTTTGCATGAGCATGATGCTTTTTTTTTTTTTTTTCTCA [ACTCT]” were 0.456 ± 0.019 and 0.348 ± 0.022.
Taken in the same sequence, the figures for “TTTTTGCATGAGCATGCGCATTTTTTTTTTTTTTTTCTAT [TATCT]” were 0.501 ± 0.027 and 0.37 ± 0.029.
For “TTTTTGCATGAGCATGCTCATTTTTTTTTTTTTTTTCTAG [GATCT]”, in that order: 0.52 ± 0.027 and 0.401 ± 0.031.
“TTTTTGCATGAGCATGCTGATTTTTTTTTTTTTTTTCTAC [CATCT]”: the background-corrected fluorescence was 0.409 ± 0.017 (dye: Cy3 (3' terminal)) and 0.296 ± 0.017 (dye: Cy5 (3' terminal)).
Taken in the same sequence, the figures for “TTTTTGCATGAGCATGCTGCTTTTTTTTTTTTTTTTCTAA [AATCT]” were 0.539 ± 0.023 and 0.454 ± 0.047.
For “TTTTTGCATGATCAGCAGCATTTTTTTTTTTTTTTTCGTT [TTGCT]”, in that order: 0.55 ± 0.029 and 0.417 ± 0.026.
“TTTTTGCATGATCAGCATCATTTTTTTTTTTTTTTTCGTG [GTGCT]” yielded a background-corrected fluorescence (dye: Cy3 (3' terminal)) of 0.525 ± 0.015 and a background-corrected fluorescence (dye: Cy5 (3' terminal)) of 0.441 ± 0.029.
For “TTTTTGCATGATCAGCATGATTTTTTTTTTTTTTTTCGTC [CTGCT]”, the background-corrected fluorescence came to 0.467 ± 0.034 (dye: Cy3 (3' terminal)) and 0.352 ± 0.03 (dye: Cy5 (3' terminal)).
For “TTTTTGCATGATCAGCATGCTTTTTTTTTTTTTTTTCGTA”, in that order: 0.59 ± 0.023 and 0.457 ± 0.043.
For “TTTTTGCATGATCATCAGCATTTTTTTTTTTTTTTTCGGT [TGGCT]”, in that order: 0.66 ± 0.028 and 0.513 ± 0.035.
For the sequence “TTTTTGCATGATCATCATCATTTTTTTTTTTTTTTTCGGG [GGGCT]”, the background-corrected fluorescence stood at 0.664 ± 0.02 (dye: Cy3 (3' terminal)) and 0.558 ± 0.044 (dye: Cy5 (3' terminal)).
Taken in the same sequence, the figures for “TTTTTGCATGATCATCATGATTTTTTTTTTTTTTTTCGGC [CGGCT]” were 0.546 ± 0.031 and 0.47 ± 0.042.
Taken in the same sequence, the figures for “TTTTTGCATGATCATCATGCTTTTTTTTTTTTTTTTCGGA [AGGCT]” were 0.734 ± 0.076 and 0.648 ± 0.024.
Taken in the same sequence, the figures for “TTTTTGCATGATCATGAGCATTTTTTTTTTTTTTTTCGCT” were 0.486 ± 0.0071 and 0.392 ± 0.085.
In the case of “TTTTTGCATGATCATGATCATTTTTTTTTTTTTTTTCGCG [GCGCT]”, the background-corrected fluorescence reads like this: (dye: Cy3 (3' terminal)) 0.93 ± 0.023; (dye: Cy5 (3' terminal)) 0.964 ± 0.064.
On to “TTTTTGCATGATCATGATGATTTTTTTTTTTTTTTTCGCC [CCGCT]”, for which the background-corrected fluorescence is, setting by setting: (dye: Cy3 (3' terminal)) 0.462 ± 0.036; (dye: Cy5 (3' terminal)) 0.337 ± 0.022.
Taken in the same sequence, the figures for “TTTTTGCATGATCATGATGCTTTTTTTTTTTTTTTTCGCA [ACGCT]” were 0.569 ± 0.035 and 0.434 ± 0.029.
For “TTTTTGCATGATCATGCGCATTTTTTTTTTTTTTTTCGAT [TAGCT]”, in that order: 0.64 ± 0.011 and 0.441 ± 0.022.
For “TTTTTGCATGATCATGCTCATTTTTTTTTTTTTTTTCGAG [GAGCT]”, in that order: 0.616 ± 0.029 and 0.478 ± 0.035.
Turning to “TTTTTGCATGATCATGCTGATTTTTTTTTTTTTTTTCGAC [CAGCT]”, the background-corrected fluorescence is, setting by setting: (dye: Cy3 (3' terminal)) 0.448 ± 0.03; (dye: Cy5 (3' terminal)) 0.378 ± 0.038.
As for “TTTTTGCATGATCATGCTGCTTTTTTTTTTTTTTTTCGAA [AAGCT]”, the background-corrected fluorescence is, setting by setting: (dye: Cy3 (3' terminal)) 0.632 ± 0.0073; (dye: Cy5 (3' terminal)) 0.524 ± 0.043.
“TTTTTGCATGATGAGCAGCATTTTTTTTTTTTTTTTCCTT” came in with a background-corrected fluorescence (dye: Cy3 (3' terminal)) of 0.435 ± 0.027 and a background-corrected fluorescence (dye: Cy5 (3' terminal)) of 0.351 ± 0.029.
Consider “TTTTTGCATGATGAGCATCATTTTTTTTTTTTTTTTCCTG [GTCCT]”, for which the background-corrected fluorescence runs as follows: (dye: Cy3 (3' terminal)) 0.475 ± 0.028; (dye: Cy5 (3' terminal)) 0.366 ± 0.034.
Taken in the same sequence, the figures for “TTTTTGCATGATGAGCATGATTTTTTTTTTTTTTTTCCTC [CTCCT]” were 0.351 ± 0.02 and 0.266 ± 0.019.
For “TTTTTGCATGATGAGCATGCTTTTTTTTTTTTTTTTCCTA [ATCCT]”, in that order: 0.455 ± 0.019 and 0.355 ± 0.019.
For “TTTTTGCATGATGATCAGCATTTTTTTTTTTTTTTTCCGT [TGCCT]”, in that order: 0.613 ± 0.021 and 0.484 ± 0.027.
Consider “TTTTTGCATGATGATCATCATTTTTTTTTTTTTTTTCCGG [GGCCT]”, for which the background-corrected fluorescence worked out at 0.617 ± 0.0071 (dye: Cy3 (3' terminal)) and 0.539 ± 0.037 (dye: Cy5 (3' terminal)).
For “TTTTTGCATGATGATCATGATTTTTTTTTTTTTTTTCCGC [CGCCT]”, the background-corrected fluorescence (dye: Cy3 (3' terminal)) was determined as 0.504 ± 0.022 and the background-corrected fluorescence (dye: Cy5 (3' terminal)) came out at 0.412 ± 0.025.
“TTTTTGCATGATGATCATGCTTTTTTTTTTTTTTTTCCGA [AGCCT]”: the background-corrected fluorescence is 0.581 ± 0.026 (dye: Cy3 (3' terminal)) and 0.552 ± 0.031 (dye: Cy5 (3' terminal)).
Consider “TTTTTGCATGATGATGAGCATTTTTTTTTTTTTTTTCCCT”, for which the background-corrected fluorescence came out at 0.472 ± 0.027 (dye: Cy3 (3' terminal)) and 0.317 ± 0.026 (dye: Cy5 (3' terminal)).
For “TTTTTGCATGATGATGATCATTTTTTTTTTTTTTTTCCCG [GCCCT]”, in that order: 0.509 ± 0.013 and 0.381 ± 0.04.
For “TTTTTGCATGATGATGATGATTTTTTTTTTTTTTTTCCCC [CCCCT]”, in that order: 0.33 ± 0.022 and 0.243 ± 0.015.
As for “TTTTTGCATGATGATGATGCTTTTTTTTTTTTTTTTCCCA [ACCCT]”, the background-corrected fluorescence by setting is: (dye: Cy3 (3' terminal)) 0.441 ± 0.036; (dye: Cy5 (3' terminal)) 0.346 ± 0.035.
For “TTTTTGCATGATGATGCGCATTTTTTTTTTTTTTTTCCAT [TACCT]”, in that order: 0.477 ± 0.025 and 0.344 ± 0.024.
With “TTTTTGCATGATGATGCTCATTTTTTTTTTTTTTTTCCAG [GACCT]”, the background-corrected fluorescence runs as follows: (dye: Cy3 (3' terminal)) 0.47 ± 0.02; (dye: Cy5 (3' terminal)) 0.377 ± 0.02.
For “TTTTTGCATGATGATGCTGATTTTTTTTTTTTTTTTCCAC [CACCT]”, in that order: 0.379 ± 0.023 and 0.273 ± 0.016.
Taken in the same sequence, the figures for “TTTTTGCATGATGATGCTGCTTTTTTTTTTTTTTTTCCAA [AACCT]” were 0.536 ± 0.038 and 0.388 ± 0.025.
Taken in the same sequence, the figures for “TTTTTGCATGATGCGCAGCATTTTTTTTTTTTTTTTCATT [TTACT]” were 0.485 ± 0.03 and 0.359 ± 0.028.
Turning to “TTTTTGCATGATGCGCATCATTTTTTTTTTTTTTTTCATG [GTACT]”, the background-corrected fluorescence (dye: Cy3 (3' terminal)) came to 0.524 ± 0.054 and the background-corrected fluorescence (dye: Cy5 (3' terminal)) was 0.377 ± 0.019.
For “TTTTTGCATGATGCGCATGATTTTTTTTTTTTTTTTCATC [CTACT]”, in that order: 0.406 ± 0.0046 and 0.305 ± 0.028.
For “TTTTTGCATGATGCGCATGCTTTTTTTTTTTTTTTTCATA [ATACT]”, in that order: 0.518 ± 0.019 and 0.396 ± 0.024.
Taken in the same sequence, the figures for “TTTTTGCATGATGCTCAGCATTTTTTTTTTTTTTTTCAGT [TGACT]” were 0.596 ± 0.016 and 0.488 ± 0.05.
On to “TTTTTGCATGATGCTCATCATTTTTTTTTTTTTTTTCAGG [GGACT]”, for which the background-corrected fluorescence by setting is: (dye: Cy3 (3' terminal)) 0.606 ± 0.034; (dye: Cy5 (3' terminal)) 0.486 ± 0.034.
Take “TTTTTGCATGATGCTCATGATTTTTTTTTTTTTTTTCAGC [CGACT]”: the background-corrected fluorescence turned out to be 0.492 ± 0.012 (dye: Cy3 (3' terminal)) and 0.393 ± 0.047 (dye: Cy5 (3' terminal)).
Taken in the same sequence, the figures for “TTTTTGCATGATGCTCATGCTTTTTTTTTTTTTTTTCAGA [AGACT]” were 0.615 ± 0.017 and 0.531 ± 0.036.
Taken in the same sequence, the figures for “TTTTTGCATGATGCTGAGCATTTTTTTTTTTTTTTTCACT” were 0.447 ± 0.036 and 0.334 ± 0.02.
For “TTTTTGCATGATGCTGATCATTTTTTTTTTTTTTTTCACG [GCACT]”, in that order: 0.491 ± 0.03 and 0.399 ± 0.022.
For the sequence “TTTTTGCATGATGCTGATGATTTTTTTTTTTTTTTTCACC [CCACT]”, the background-corrected fluorescence is, setting by setting: (dye: Cy3 (3' terminal)) 0.382 ± 0.011; (dye: Cy5 (3' terminal)) 0.265 ± 0.016.
For “TTTTTGCATGATGCTGATGCTTTTTTTTTTTTTTTTCACA [ACACT]”, in that order: 0.485 ± 0.015 and 0.379 ± 0.034.
For “TTTTTGCATGATGCTGCGCATTTTTTTTTTTTTTTTCAAT [TAACT]”, in that order: 0.554 ± 0.027 and 0.386 ± 0.019.
